From PMC10362042
pKd: −log10 of the molar value. Where “and” joins values, the source holds several entries; their conditions need not be identical. Identical values can stand only once. Like-named read-outs stand apart in the source and are kept apart here.

Assays:
Assay in all cases: SPR
Rabbit ACE2 (rabbit) = target: Rabbit ACE2 (rabbit)
Goat ACE2 (goat) = target: Goat ACE2 (goat)
Sheep ACE2 (sheep) = target: Sheep ACE2 (sheep)
Pig ACE2 (pig) [1] = target: Pig ACE2 (pig)
Pig ACE2 (pig) [2] = target: Pig ACE2 (pig); remark: listed apart in the source
Dog ACE2 (dog) = target: Dog ACE2 (dog)

Substance: SARS-CoV-2 Omicron BA.1 RBD (residues 319-541) (from UniProt P0DTC2 319-541) (domain or fragment)
- pKd (Rabbit ACE2 (rabbit)): 7.22 and 7.36
- Kd (Goat ACE2 (goat)): 174 nM and 180 nM (2×) and 188 nM
- pKd (Sheep ACE2 (sheep)): 7.21 and 7.18 and 7.15

Substance: SARS-CoV-2 Omicron BA.2 RBD (residues 319-541) (from UniProt P0DTC2 319-541) (domain or fragment)
- pKd (Pig ACE2 (pig) [1]): 6.14 and 6.17
- pKd (Rabbit ACE2 (rabbit)): 7.12 and 7.27 and 7.23
- Kd (Goat ACE2 (goat)): 111 nM and 102 nM and 106 nM (2×)
- pKd (Pig ACE2 (pig) [2]): 6.18

Substance: SARS-CoV-2 Omicron BA.4/5 RBD (residues 319-541) (from UniProt P0DTC2 319-541) (domain or fragment)
- pKd (Dog ACE2 (dog)): 6.68 and 6.84 and 6.73
- pKd (Goat ACE2 (goat)): 7.54 and 7.58 and 7.60
- pKd (Pig ACE2 (pig) [2]): 8.21 and 8.14 and 8.10
